The results in this text go back to PMC6107515, “Factor H binding proteins protect division septa on encapsulated Streptococcus pneumoniae against complement C3b deposition and amplification” (Nature Communications, 2018).

Test [1] addresses T1, human complement Factor H (human, UniProt P08603 19-1231).
T1 construct: complement factor H, human, purified; also called FH
Put plainly: SPR; Biacore X100; FH coupled to a CM4 chip, recombinant PspCs injected at five increasing concentrations (kinetic titration); PBS-P+ buffer; fitted with a 1:1 binding model. The following applies: both partners purified. (In general: SPR reads the build-up and loss of mass on a sensor chip optically.)

Test [2] has as its target T1, human complement Factor H. Described as above. The settings on record: both partners purified. This is another data set of the same source.

T1 sequence (P08603 19-1231): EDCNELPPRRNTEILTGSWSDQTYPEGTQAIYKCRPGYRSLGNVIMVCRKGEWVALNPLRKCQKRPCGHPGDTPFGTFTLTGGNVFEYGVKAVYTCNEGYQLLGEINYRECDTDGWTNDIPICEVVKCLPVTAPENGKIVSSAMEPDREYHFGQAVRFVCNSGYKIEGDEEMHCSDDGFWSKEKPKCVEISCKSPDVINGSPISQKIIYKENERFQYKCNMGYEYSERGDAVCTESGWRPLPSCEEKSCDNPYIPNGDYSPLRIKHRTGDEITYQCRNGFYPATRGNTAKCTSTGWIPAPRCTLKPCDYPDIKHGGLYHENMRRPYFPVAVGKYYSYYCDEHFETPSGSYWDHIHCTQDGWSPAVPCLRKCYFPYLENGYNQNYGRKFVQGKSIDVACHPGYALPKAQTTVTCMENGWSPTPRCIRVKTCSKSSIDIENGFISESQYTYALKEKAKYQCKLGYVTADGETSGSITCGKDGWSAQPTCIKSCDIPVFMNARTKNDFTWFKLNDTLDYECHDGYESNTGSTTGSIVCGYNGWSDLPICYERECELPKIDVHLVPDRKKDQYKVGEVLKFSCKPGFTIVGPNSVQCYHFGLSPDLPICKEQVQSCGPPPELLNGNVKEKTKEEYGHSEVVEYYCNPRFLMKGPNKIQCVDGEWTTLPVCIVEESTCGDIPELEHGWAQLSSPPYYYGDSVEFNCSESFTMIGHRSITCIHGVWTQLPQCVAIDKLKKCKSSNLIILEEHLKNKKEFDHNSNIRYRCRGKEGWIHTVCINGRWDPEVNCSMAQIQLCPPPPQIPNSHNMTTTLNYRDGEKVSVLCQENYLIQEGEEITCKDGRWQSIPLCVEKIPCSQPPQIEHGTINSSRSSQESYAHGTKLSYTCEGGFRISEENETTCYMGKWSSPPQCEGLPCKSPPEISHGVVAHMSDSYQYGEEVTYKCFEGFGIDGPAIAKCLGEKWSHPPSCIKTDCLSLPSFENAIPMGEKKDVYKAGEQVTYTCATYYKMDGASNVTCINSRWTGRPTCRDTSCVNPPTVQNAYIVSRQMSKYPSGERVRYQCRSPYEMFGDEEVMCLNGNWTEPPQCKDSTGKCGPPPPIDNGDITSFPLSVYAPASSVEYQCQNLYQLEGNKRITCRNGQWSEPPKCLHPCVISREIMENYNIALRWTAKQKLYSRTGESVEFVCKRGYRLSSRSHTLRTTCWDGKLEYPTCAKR

B1: recombinant PspC1 (BHN418) (domain or fragment)
chain: EEVGGRNTPTVTSSGQDISKKYADEVESHLKKILSEIQTQLDRKRHTKTVALINELQDIKKTYLYNLNVLKEKSELPSKIKAKLEVAFDQFKKDTLKPGEKVAEAEKKVAEAKKKAEDQKEEDRRNYPTNTYKTLELEIAESDVKVKEAELELVNEEAKPGNEEKIKKAKAKVESEKAEAIRLEEIKTDREEAKRKADAKLKEAVENNAATSEQGEPKRRVKRGVLGEPATPDKKENDAKSSDSSVGEETLPSPSLKPEKKVAEAEKKAKDQKEEDRRNYPTNTYKTLELEIAESDVKVKEAELELVKEEAKESRNEEKVKQAKAKVESKKAEATRLEKIKTDRKKAEEAKRKAAEEDKVKEKPAEQPQPAPAPQPEKPAPKPEKPAPAPKPENPAEQPKAEKPADQQAEEDYARRSEEEYNRLTQQQPPKTEKPAQPSTPKTGWKQENGMWYFYNTDGSMA
Turning to B1, the Kd (in general, the free concentration of one partner at which half of the binding sites on the other are occupied at equilibrium, for simple one-to-one binding) in test [1] stood at 0.0908 nM. Moreover, in test [2], the Kd worked out at 0.09 nM; the koff (in general, the first-order rate constant of dissociation) came out at 6.2e-05 s⁻¹; the kon (as a rule, the rate constant with which the complex forms) came to 690000 M⁻¹ s⁻¹.

B2: recombinant PspC2 (BHN418) (domain or fragment)
chain: TEKEGSTQAATSFNRGNGSQAEQRGELDLERDKAMKAVSEYVGKMVRDAYVKSDRKRHKNTVALVNQLGNIKNRYLNEIVHSTSKSQLQELMMKSQSEVDEAVSKFEKDSFSSSSSGSSTKPETPQPENPEHQKPTTPSPDTKPSPQPEGKKPSVPDINQEKEKAKLAVVTYMSKILDDIQKHHLQKEKHRQIVALIKELDELKKQALSEIDNVNTKVEIENTVHKIFADMDAVVTKFKKGLTQDTPKEPGNKKPSAPKPGMQPSPQPEVKPQLEKPKPEVKPQPEKPKPEVKPQPEKPKPEVKPQPEKPKPEVKPQPEKPKPEVKPQPEKPKPEVKPQPEKPKPEVKPQPEKPKPEVKPQPEKPKPEVKPQPEKPKPEVKPQPEKPKPEVKPQPEKPKPEVKPQPEKPKPEVKPQPEKPKPEVKPQPEKPKPEVKPQPEKPKPEVKPQPEKPKPEVKPQPEKPKPEVKPQPEKPKPEVKPQPEKPKPDNSKPQADDKKPSTTNNLSKDKQPSNQASTNEKATNKPKK
notes: PspC2 of Streptococcus pneumoniae BHN418, lacking the LPxTG motif and the first 37 aa (signal peptide); whole precursor given in Supplementary Data 1; cloned NdeI/XhoI in pET28a; source: E. coli Rosetta (DE3), purified (Ni-NTA, thrombin, Ni-NTA, Superdex 75); not shown: 6xHis, N-terminal, cleaved
On to B2, for which, in test [2], the Kd was 0.013 nM, the koff is 5.5e-05 s⁻¹ and the kon turned out to be 4.1e+06 M⁻¹ s⁻¹.
